Test results: patent US8785391B2, “Compound and method for treatment of alzheimer's disease and familial dementia” (Alphabeta AB, priority 2010, dated 2014)

Columns and labels:
[1] = target: T1, ABri23 (Homo sapiens, UniProt Q9Y287); assay: ESI-MS binding of Bri2(90-236) to ABri23
T1 construct: purchased Bachem (Bubendorf, Switzerland)
Protocol: Prior to electrospray ionization mass spectrometry (ESI-MS), purified Bri2(90-236) (SEQ ID NO: 2) was rebuffered into 10 mM ammonium acetate, pH 7.0, using spin columns with a 3 kDa cut-off limit (Nanosep, Pall Corp., East Hills, N.Y., USA). Protein and peptides were mixed at 22° C. directly before analysis at a final protein concentration of 20 μM and a final peptide concentration of 50 μM. Data was acquired using a QTOF Ultima API mass spectrometer (Waters, Milford, Mass., USA) equipped with a Z-spray source operated in the positive-ion mode. Samples were introduced via nano-electrospray using metal-plated borosilicate glass capillary needles (Proxeon, Denmark). The source temperature was 80° C., the capillary voltage 1.7 kV, and the cone and RF lens 1 potentials were 100 and 38 V, respectively. The mass spectrometer was operated in single-reflector mode at a resolution of 10 000 (full width half maximum definition), and the mass scale was calibrated using myoglobin. Scans were acquired at a rate of 1 scan per 2 sec between 500 and 4000 m/z. The collision gas was argon at 5.2×10^−5 mbar. Mass spectra were smoothed using the Waters MassLynx software.
All peptides, with the exception of KFFEYNGKKFFE (SEQ ID NO: 15), ABri23 (SEQ ID NO: 4) and Aβ1-40 (SEQ ID NO: 11), were purchased from Thermo Electron (Darmstadt, Germany). KFFEYNGKKFFE was purchased from Interactiva (Ulm, Germany) and Aβ1-40 and disulfide-linked ABri23 were from Bachem (Bubendorf, Switzerland).
Peptides, except for KFFEYNGKKFFE, ABri23 and Aβ1-40, were acetylated at the N-terminus and amidated at the C-terminus. […]
ESI-MS binding experiments were conducted to investigate whether Bri2(90-236) can bind the peptides ABri23 and Aβ1-40. For this purpose, Bri2(90-236) was mixed with ABri23, Aβ1-40, or an equimolar mixture of ABri23 and Aβ1-40, to a final concentration of 20 μM Bri2(90-236) and 50 μM of each peptide, and analyzed by ESI-MS. Mass spectra were recorded to investigate the presence and stoichiometry of protein-peptide complexes in the gas phase.

[2] = target: T2, Aβ1-40 (Homo sapiens, UniProt P05067); assay: Electron microscopy of Aβ1-40 pellets; type: biochemical; details: co-incubation with Aβ1-40, 1:1 molar ratio, 5 days
T2 construct: made in house; host or cells: E. coli
T2 sequence (P05067 672-711): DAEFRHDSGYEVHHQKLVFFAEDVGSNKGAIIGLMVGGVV
Protocol: (§1) […] Aβ1-40 was dissolved in 100% DMSO to 250 μM stock solution, which was diluted to working concentrations. For Thioflavin T (ThT) fluorescence measurements, 10 μl aliquots were removed at different time points, 10 μM ThT (Aldrich) added, and fluorescence was measured with a […] fluorescence plate reader (GE Healthcare), emission wavelength is 480 nm, excitation wavelength 440 nm. Measurements of ThT were done in duplicates. For analysis of soluble Aβ1-40 and ultrastructure of Aβ aggregates, aliquots were removed and centrifuged at 3300 g for 9 min. The supernatant was analyzed by SDS-PAGE and pellets were resuspended in 200 μl distilled water, 2 μl of the resuspension was added onto 200 mesh copper electron microscopy grids, stained with 2% uranyl acetate for 30 s, then left to dry at 20° C. A Hitachi H 7100 microscope operated at 75 kV was used for examination and photographing.

[3] = target: T2, Aβ1-40; assay: Thioflavin T fluorescence of Aβ1-40 aggregation (Example 3); type: biochemical; details: 25 μM Aβ1-40, Aβ/Bri2(90-236) molar ratios 1:1, 2:1, 10:1, 37° C., pH 7.0, 24 h period studied
Protocol: 25 μM of Aβ1-40 (SEQ ID NO: 11) was incubated with or without recombinant Bri2(90-236) (SEQ ID NO: 2) in 20 mM phosphate buffer, pH 7.0 at 37° C. for 48 h, with 200 rpm agitation, at Aβ/Bri2(90-236) molar ratios of 1:1, 2:1, or 10:1. Aβ1-40 was dissolved in 100% DMSO to 250 μM stock solution, which was diluted to working concentrations. For Thioflavin T (ThT) fluorescence measurements, 10 μl aliquots were removed at different time points, 10 μM ThT (Aldrich) added, and fluorescence was measured with a […] fluorescence plate reader (GE Healthcare), emission wavelength is 480 nm, excitation wavelength 440 nm. Measurements of ThT were done in duplicates.

[4] = target: T2, Aβ1-40; assay: SDS-PAGE of supernatants, soluble Aβ1-40; type: biochemical; details: co-incubation with 25 μM Aβ1-40, 37° C., 3 weeks incubation, centrifugation at 3300 g
Protocol: as §1

B1: Bri2(90-236): recombinant protein of residues 90-236 of human Bri2 (SEQ ID NO: 2), encompassing the Brichos domain, expressed in E. coli (protein, listed as Homo sapiens)
chain: GIKYIKDDVILNEPSADAPAALYQTIEENIKIFEEEEVEFISVPVPEFADSDPANIVHDFNKKLTAYLDLNLDKCYVIPLNTSIVMPPRNLLELLINIKAGTYLPQSYLIHEHMVITDRIENIDHLGFFIYRLCHDKETYKLQRRET
Bri2(90-236)/ABri23 complex in competition experiment ([1]; 20 μM Bri2(90-236) with 50 μM Aβ1-40 and 50 μM ABri23 (equimolar), ESI-MS): nearly all detectable recombinant Bri2(90-236) is complexed with ABri23 | saturation of Bri2(90-236) with ABri23 (complex formation) ([1]; 20 μM Bri2(90-236), 50 μM oxidized ABri23 (2.5-fold molar excess), ESI-MS conditions): near-complete saturation | binding preference ABri23 versus Aβ1-40 ([1]; competition, both peptides at equimolar amounts, ESI-MS): preferentially binds ABri23 | amount of Aβ1-40 amyloid-like fibrils in pellets (electron microscopy) [2]: lower amounts of fibrils | ThT positive aggregates of Aβ1-40 [3]: no ThT positive aggregates were found | Aβ1-40 in solution (SDS-PAGE of supernatants) [4]: staying in solution
